Substitutions are numbered along the chain they refer to.

T1: human IFNγ receptor on HEK-Blue IFN-γ cells (human, UniProt P15260 18-489; P38484 22-337)
T1 sequence (looked up) 1: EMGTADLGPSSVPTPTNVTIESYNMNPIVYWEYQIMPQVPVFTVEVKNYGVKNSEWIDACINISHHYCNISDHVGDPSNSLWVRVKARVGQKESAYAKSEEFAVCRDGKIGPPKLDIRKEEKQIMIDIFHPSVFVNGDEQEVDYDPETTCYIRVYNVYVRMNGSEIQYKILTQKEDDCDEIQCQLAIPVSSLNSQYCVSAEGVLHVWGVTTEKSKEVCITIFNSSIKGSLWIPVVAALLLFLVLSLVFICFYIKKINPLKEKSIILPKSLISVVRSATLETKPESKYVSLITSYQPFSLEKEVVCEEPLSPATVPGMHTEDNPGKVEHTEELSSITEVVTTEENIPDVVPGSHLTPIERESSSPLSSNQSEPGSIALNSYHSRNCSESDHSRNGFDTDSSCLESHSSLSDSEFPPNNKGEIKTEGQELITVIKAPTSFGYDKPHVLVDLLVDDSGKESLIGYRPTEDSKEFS
T1 sequence (looked up) 2: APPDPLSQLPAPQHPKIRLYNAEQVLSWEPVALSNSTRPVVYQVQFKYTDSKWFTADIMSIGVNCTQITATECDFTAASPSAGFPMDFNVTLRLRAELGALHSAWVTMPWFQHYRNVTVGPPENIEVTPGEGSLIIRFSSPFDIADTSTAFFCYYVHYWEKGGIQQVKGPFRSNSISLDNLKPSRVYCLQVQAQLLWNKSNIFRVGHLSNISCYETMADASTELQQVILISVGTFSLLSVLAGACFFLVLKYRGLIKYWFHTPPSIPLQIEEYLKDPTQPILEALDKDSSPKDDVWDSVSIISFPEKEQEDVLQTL

T2: human type I IFN receptor on HEK-Blue IFN-α/β cells (human, UniProt P17181 28-557; P48551 27-515)
T2 sequence (looked up) 1: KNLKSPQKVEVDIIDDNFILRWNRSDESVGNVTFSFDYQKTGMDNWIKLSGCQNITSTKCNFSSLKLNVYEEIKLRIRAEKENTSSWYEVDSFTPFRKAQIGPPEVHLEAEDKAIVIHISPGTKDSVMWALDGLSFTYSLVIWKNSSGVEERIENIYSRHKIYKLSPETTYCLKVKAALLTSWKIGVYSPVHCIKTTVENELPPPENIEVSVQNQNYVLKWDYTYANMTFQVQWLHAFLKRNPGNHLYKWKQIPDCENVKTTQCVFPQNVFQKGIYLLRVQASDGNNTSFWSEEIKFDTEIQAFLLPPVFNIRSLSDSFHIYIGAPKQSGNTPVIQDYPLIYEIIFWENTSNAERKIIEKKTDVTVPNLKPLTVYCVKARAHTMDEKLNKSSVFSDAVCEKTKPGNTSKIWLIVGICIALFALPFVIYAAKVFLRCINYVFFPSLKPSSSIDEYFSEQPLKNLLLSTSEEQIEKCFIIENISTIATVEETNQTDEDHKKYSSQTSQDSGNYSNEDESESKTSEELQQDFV
T2 sequence (looked up) 2: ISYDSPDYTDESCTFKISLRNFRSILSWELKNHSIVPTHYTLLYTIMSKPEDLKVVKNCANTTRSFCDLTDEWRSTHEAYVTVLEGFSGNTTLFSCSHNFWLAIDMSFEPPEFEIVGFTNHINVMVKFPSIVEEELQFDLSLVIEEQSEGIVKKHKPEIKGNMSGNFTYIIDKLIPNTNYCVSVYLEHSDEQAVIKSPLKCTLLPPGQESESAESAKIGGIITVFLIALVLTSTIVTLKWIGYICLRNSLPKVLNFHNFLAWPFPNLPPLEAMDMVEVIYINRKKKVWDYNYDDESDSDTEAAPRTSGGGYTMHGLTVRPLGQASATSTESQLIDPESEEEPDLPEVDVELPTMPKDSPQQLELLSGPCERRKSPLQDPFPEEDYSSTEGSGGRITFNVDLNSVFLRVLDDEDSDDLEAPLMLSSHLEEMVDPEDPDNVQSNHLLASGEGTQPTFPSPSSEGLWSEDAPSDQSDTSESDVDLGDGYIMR

B1: agonistic anti-CD40 antibody CP870,893 (antibody, human IgG2, kappa)
heavy: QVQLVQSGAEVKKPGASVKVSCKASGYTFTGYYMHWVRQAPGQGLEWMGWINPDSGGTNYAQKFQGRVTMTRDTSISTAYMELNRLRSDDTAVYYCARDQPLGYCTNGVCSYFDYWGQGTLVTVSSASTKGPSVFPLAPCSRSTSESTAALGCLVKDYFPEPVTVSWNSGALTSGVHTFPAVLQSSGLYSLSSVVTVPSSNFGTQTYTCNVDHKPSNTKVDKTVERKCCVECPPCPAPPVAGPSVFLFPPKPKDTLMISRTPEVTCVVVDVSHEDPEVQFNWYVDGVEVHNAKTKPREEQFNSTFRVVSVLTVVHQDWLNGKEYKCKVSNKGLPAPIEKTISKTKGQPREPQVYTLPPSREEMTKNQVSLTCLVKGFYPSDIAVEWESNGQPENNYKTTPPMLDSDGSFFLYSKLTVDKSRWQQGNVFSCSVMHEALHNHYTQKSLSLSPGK
light: DIQMTQSPSSVSASVGDRVTITCRASQGIYSWLAWYQQKPGKAPNLLIYTASTLQSGVPSRFSGSGSGTDFTLTISSLQPEDFATYYCQQANIFPLTFGGGTKVEIKRTVAAPSVFIFPPSDEQLKSGTASVVCLLNNFYPREAKVQWKVDNALQSGNSQESVTEQDSKDSTYSLSSTLTLSKADYEKHKVYACEVTHQGLSSPVTKSFNRGEC
B2: IFA42 (antibody, human IgG2, kappa)
light: DIQMTQSPSSVSASVGDRVTITCRASQGIYSWLAWYQQKPGKAPNLLIYTASTLQSGVPSRFSGSGSGTDFTLTISSLQPEDFATYYCQQANIFPLTFGGGTKVEIKRTVAAPSVFIFPPSDEQLKSGTASVVCLLNNFYPREAKVQWKVDNALQSGNSQESVTEQDSKDSTYSLSSTLTLSKADYEKHKVYACEVTHQGLSSPVTKSFNRGECGGGGSGGGGSGGGGSGGGGSQDPYVKEAENLKKYFNAGHSDVADNGTLFLGILKNWKEESDRKIMQSQIVSFYFKLFKNFKDDQSIQKSVETIKEDMNVKFFNSNKKKRDDFEKLTNYSVTDLNVQRKAIHELIQVMAELSPAAKTGKRKRSQMLFRGRRASQ
heavy: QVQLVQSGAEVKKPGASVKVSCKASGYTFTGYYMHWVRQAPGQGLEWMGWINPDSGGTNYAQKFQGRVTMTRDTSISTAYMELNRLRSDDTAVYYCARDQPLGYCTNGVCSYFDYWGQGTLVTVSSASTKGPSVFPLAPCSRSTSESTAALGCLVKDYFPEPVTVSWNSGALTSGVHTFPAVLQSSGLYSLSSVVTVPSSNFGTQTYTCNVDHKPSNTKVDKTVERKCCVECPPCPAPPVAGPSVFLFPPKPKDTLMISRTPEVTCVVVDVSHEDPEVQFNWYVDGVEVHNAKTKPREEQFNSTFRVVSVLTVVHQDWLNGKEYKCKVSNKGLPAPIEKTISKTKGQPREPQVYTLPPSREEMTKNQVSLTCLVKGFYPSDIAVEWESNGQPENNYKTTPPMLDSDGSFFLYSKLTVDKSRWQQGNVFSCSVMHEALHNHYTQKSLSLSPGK
B3: IFA8 (antibody, human IgG2, kappa)
heavy: not shown
light: B1 light
B4: IFA11 (antibody, human IgG2, kappa)
heavy: not shown
light: B1 light
B5: IFA9 (antibody, human IgG2, kappa)
heavy: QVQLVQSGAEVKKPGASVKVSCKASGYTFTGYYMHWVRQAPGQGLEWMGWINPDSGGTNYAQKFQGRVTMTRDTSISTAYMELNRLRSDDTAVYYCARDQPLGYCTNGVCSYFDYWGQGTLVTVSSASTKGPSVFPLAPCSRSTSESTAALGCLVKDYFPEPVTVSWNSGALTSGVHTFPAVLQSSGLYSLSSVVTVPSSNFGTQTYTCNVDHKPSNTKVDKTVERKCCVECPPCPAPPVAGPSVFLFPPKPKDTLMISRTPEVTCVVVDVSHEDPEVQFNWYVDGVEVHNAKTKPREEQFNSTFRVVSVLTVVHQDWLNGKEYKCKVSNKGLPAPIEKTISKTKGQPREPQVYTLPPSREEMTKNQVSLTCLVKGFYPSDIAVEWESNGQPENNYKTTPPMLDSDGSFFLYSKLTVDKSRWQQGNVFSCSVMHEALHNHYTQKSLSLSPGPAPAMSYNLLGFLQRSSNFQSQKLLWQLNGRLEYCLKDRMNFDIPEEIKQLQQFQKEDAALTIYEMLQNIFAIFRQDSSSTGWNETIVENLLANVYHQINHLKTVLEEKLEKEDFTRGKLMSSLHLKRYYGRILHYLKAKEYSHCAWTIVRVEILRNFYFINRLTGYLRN
light: B1 light
B6: IFA10 (antibody, human IgG2, kappa)
heavy: not shown
light: B1 light
B7: IFA19 (antibody, human IgG2, kappa)
light: DIQMTQSPSSVSASVGDRVTITCRASQGIYSWLAWYQQKPGKAPNLLIYTASTLQSGVPSRFSGSGSGTDFTLTISSLQPEDFATYYCQQANIFPLTFGGGTKVEIKRTVAAPSVFIFPPSDEQLKSGTASVVCLLNNFYPREAKVQWKVDNALQSGNSQESVTEQDSKDSTYSLSSTLTLSKADYEKHKVYACEVTHQGLSSPVTKSFNRGECSGGTSGSTSGTGSMSYNLLGFLQRSSNFQSQKLLWQLNGRLEYCLKDRMNFDIPEEIKQLQQFQKEDAALTIYEMLQNIFAIFRQDSSSTGWNETIVENLLANVYHQINHLKTVLEEKLEKEDFTRGKLMSSLHLKRYYGRILHYLKAKEYSHCAWTIVRVEILRNFYFINRLTGYLRN
heavy: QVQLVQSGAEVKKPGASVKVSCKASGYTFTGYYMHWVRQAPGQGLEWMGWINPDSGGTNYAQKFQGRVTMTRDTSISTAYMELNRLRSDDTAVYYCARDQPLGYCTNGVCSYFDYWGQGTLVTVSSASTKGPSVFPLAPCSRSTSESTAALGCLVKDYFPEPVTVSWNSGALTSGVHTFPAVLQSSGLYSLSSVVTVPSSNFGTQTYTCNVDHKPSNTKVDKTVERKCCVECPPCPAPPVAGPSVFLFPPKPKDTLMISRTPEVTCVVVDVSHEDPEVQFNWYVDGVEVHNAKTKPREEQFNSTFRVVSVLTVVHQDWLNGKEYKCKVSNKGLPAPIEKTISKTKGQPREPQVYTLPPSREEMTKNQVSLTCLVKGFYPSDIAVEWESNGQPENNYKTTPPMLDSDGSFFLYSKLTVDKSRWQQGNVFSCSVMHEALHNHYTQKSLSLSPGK
B8: IFA1 (antibody, human IgG2, kappa)
light: DIQMTQSPSSVSASVGDRVTITCRASQGIYSWLAWYQQKPGKAPNLLIYTASTLQSGVPSRFSGSGSGTDFTLTISSLQPEDFATYYCQQANIFPLTFGGGTKVEIKRTVAAPSVFIFPPSDEQLKSGTASVVCLLNNFYPREAKVQWKVDNALQSGNSQESVTEQDSKDSTYSLSSTLTLSKADYEKHKVYACEVTHQGLSSPVTKSFNRGECAEAAAKEAAAKAMSYNLLGFLQRSSNFQCQKLLWQLNGRLEYCLKDRMNFDIPEEIKQLQQFQKEDAALTIYEMLQNIFAIFRQDSSSTGWNETIVENLLANVYHQINHLKTVLEEKLEKEDFTRGKLMSSLHLKRYYGRILHYLKAKEYSHCAWTIVRVEILRNFYFINRLTGYLRN
heavy: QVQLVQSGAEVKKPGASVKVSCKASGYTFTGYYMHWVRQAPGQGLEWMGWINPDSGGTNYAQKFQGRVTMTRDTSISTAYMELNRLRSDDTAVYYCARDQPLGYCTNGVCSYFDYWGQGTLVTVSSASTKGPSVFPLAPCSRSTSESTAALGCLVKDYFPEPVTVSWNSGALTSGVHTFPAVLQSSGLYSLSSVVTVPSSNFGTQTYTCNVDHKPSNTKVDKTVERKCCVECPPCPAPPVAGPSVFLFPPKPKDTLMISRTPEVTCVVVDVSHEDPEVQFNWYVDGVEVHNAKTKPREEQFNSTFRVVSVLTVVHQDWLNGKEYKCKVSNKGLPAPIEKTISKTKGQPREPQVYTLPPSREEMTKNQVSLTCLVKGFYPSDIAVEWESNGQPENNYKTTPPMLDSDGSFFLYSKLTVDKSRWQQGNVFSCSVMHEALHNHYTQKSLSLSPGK
B9: IFA2 (antibody, human IgG2, kappa)
light: B8 light with C243S
heavy: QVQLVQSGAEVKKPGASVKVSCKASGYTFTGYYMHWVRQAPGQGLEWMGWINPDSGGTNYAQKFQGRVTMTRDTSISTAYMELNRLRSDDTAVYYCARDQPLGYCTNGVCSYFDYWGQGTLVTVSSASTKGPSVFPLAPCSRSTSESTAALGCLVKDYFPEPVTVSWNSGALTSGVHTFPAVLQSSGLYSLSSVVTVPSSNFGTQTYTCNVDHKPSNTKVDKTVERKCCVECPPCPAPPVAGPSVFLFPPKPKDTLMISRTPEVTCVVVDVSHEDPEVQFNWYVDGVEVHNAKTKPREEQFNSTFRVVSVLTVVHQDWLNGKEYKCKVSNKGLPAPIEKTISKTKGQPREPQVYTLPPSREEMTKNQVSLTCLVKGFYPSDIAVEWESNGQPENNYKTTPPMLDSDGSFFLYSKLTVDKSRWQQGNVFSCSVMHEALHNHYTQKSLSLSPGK
B10: IFA12 (antibody, human IgG2, kappa)
light: DIQMTQSPSSVSASVGDRVTITCRASQGIYSWLAWYQQKPGKAPNLLIYTASTLQSGVPSRFSGSGSGTDFTLTISSLQPEDFATYYCQQANIFPLTFGGGTKVEIKRTVAAPSVFIFPPSDEQLKSGTASVVCLLNNFYPREAKVQWKVDNALQSGNSQESVTEQDSKDSTYSLSSTLTLSKADYEKHKVYACEVTHQGLSSPVTKSFNRGECPAPAMSYNLLGFLQRSSNFQCQKLLWQLNGRLEYCLKDRMNFDIPEEIKQLQQFQKEDAALTIYEMLQNIFAIFRQDSSSTGWNETIVENLLANVYHQINHLKTVLEEKLEKEDFTRGKLMSSLHLKRYYGRILHYLKAKEYSHCAWTIVRVEILRNFYFINRLTGYLRN
heavy: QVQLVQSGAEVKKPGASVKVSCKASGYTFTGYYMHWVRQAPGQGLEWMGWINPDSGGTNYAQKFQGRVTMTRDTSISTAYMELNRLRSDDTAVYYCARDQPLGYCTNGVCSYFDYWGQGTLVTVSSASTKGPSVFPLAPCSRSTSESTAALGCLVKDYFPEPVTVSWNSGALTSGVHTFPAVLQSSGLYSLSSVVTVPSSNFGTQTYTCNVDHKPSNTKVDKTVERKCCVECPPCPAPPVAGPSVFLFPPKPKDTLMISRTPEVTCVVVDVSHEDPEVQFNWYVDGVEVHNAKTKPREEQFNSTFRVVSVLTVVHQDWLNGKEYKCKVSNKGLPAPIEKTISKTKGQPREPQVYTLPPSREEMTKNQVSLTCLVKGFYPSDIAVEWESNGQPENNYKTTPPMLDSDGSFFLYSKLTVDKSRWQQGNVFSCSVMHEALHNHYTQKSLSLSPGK
B11: IFA13 (antibody, human IgG2, kappa)
light: B10 light with C235S
heavy: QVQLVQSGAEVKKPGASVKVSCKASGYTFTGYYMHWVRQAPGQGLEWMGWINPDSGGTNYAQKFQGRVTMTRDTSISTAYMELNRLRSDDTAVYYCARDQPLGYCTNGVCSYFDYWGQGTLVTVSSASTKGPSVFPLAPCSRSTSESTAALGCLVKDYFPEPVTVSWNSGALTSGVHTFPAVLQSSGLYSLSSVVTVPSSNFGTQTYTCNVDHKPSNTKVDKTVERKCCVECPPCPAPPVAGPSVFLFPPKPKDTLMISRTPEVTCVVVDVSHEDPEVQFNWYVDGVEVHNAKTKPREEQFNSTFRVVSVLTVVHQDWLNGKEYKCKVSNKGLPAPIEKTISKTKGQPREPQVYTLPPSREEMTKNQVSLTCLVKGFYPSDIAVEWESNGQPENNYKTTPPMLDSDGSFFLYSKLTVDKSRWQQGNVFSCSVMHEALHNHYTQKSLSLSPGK
B12: IFA20 (antibody, human IgG2, kappa)
light: DIQMTQSPSSVSASVGDRVTITCRASQGIYSWLAWYQQKPGKAPNLLIYTASTLQSGVPSRFSGSGSGTDFTLTISSLQPEDFATYYCQQANIFPLTFGGGTKVEIKRTVAAPSVFIFPPSDEQLKSGTASVVCLLNNFYPREAKVQWKVDNALQSGNSQESVTEQDSKDSTYSLSSTLTLSKADYEKHKVYACEVTHQGLSSPVTKSFNRGECAEAAAKEAAAKAAEAAAKEAAAKAMSYNLLGFLQRSSNFQSQKLLWQLNGRLEYCLKDRMNFDIPEEIKQLQQFQKEDAALTIYEMLQNIFAIFRQDSSSTGWNETIVENLLANVYHQINHLKTVLEEKLEKEDFTRGKLMSSLHLKRYYGRILHYLKAKEYSHCAWTIVRVEILRNFYFINRLTGYLRN
heavy: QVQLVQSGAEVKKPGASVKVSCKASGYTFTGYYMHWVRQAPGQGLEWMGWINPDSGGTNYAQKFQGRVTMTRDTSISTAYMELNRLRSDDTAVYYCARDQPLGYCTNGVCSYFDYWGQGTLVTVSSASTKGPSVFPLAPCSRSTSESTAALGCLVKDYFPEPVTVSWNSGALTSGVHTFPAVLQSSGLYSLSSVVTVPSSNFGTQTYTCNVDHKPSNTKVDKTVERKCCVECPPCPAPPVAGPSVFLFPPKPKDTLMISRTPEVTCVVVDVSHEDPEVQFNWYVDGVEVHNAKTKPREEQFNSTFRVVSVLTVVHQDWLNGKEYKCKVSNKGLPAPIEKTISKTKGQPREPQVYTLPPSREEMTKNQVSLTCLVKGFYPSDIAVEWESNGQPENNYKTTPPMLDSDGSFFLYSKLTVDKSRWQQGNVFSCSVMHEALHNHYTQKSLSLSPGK

T3 sequence (P25942 21-277): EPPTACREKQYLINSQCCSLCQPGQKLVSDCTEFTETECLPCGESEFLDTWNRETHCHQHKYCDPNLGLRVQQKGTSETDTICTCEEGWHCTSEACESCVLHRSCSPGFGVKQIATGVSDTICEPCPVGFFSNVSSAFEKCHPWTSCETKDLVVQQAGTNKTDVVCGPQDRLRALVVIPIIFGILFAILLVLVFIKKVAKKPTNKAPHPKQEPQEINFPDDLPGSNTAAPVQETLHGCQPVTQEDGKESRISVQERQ

The first experiment has as its target T3, human CD40 (human, UniProt P25942 21-277). The experiment can be described thus: cell-based or functional assay.
As to B1, the “EC50 for agonistic CD40, HEK-Blue CD40L cells, experiment of FIG. 3” value is 0.057 µg/mL; the “EC50 on CD40 pathway, HEK-Blue CD40L cells” value was 0.03 to 0.08 µg/mL; the “mean EC50 for agonistic CD40, HEK-Blue CD40L cells” value worked out at 0.048 µg/mL.

The target of the next experiment is T1, human IFNγ receptor on HEK-Blue IFN-γ …. Briefly: cell-based or functional assay.
With B2, the “IFNγ EC50 (ng/mL), reporter in HEK-Blue IFNγ cells” value was 15.4 ng/mL.

A further experiment has as its target T3, human CD40. Briefly: cell-based or functional assay. The source holds these as a separate data set.
On to B2, for which the “CD40 EC50 (ng/mL), NFκB-SEAP reporter in HEK-Blue CD40L cells” value (from here on “CD40 EC50 (ng/mL), NFκB-SEAP reporter”) amounted to 65.6 ng/mL.

In another experiment the target is T2, human type I IFN receptor on HEK-Blue …. Briefly: cell-based or functional assay.
Turning to B3, the “IFNβ EC50 (ng/mL), SEAP reporter in HEK-Blue IFN-α/β cells” value (from here on “IFNβ EC50 (ng/mL), SEAP reporter”) was found to be 2.9 ng/mL.

In the case of B4, the “IFNβ EC50 (ng/mL), SEAP reporter” value came to 1.78 ng/mL.

B5: the “IFNβ EC50 (ng/mL), SEAP reporter” value was found to be 0.7 ng/mL.

As for B6, the “IFNβ EC50 (ng/mL), SEAP reporter” value amounted to 4.5 ng/mL.

For the molecule B7, the “IFNβ EC50 (ng/mL), SEAP reporter” value came out at 1.3 ng/mL.

As for B8, the “IFNβ EC50 (ng/mL), SEAP reporter” value was 1.64 ng/mL.

With B9, the “IFNβ EC50 (ng/mL), SEAP reporter” value was 0.14 ng/mL.

For B10, the “IFNβ EC50 (ng/mL), SEAP reporter” value was 3.64 ng/mL.

Regarding B11, the “IFNβ EC50 (ng/mL), SEAP reporter” value came to 0.7 ng/mL.

As for B12, the “IFNβ EC50 (ng/mL), SEAP reporter” value turned out to be 2.34 ng/mL.

A further experiment concerns the target T3, human CD40. Briefly: cell-based or functional assay. The source holds these as a separate data set.
Regarding B3, the “CD40 EC50 (ng/mL), NFκB-SEAP reporter” value stood at 39.7 ng/mL.

With B4, the “CD40 EC50 (ng/mL), NFκB-SEAP reporter” value came to 42.8 ng/mL.

In the case of B5, the “CD40 EC50 (ng/mL), NFκB-SEAP reporter” value was 42.6 ng/mL.

With B6, the “CD40 EC50 (ng/mL), NFκB-SEAP reporter” value was determined as 26.5 ng/mL.

For B7, the “CD40 EC50 (ng/mL), NFκB-SEAP reporter” value was 110 ng/mL.

For the molecule B8, the “CD40 EC50 (ng/mL), NFκB-SEAP reporter” value was 74.1 ng/mL.

On to B9, for which the “CD40 EC50 (ng/mL), NFκB-SEAP reporter” value came out at 111 ng/mL.

On to B10, for which the “CD40 EC50 (ng/mL), NFκB-SEAP reporter” value amounted to 105 ng/mL.

On to B11, for which the “CD40 EC50 (ng/mL), NFκB-SEAP reporter” value was 192 ng/mL.

For B12, the “CD40 EC50 (ng/mL), NFκB-SEAP reporter” value worked out at 182 ng/mL.
